The values below come from patent CN107840891A.

Test [1] addresses MSLN抗原 (Mesothelin, MSLN-Biotin) (human) (UniProt Q13421). Kind of test: BLI (Octet RED96), MSLN-Biotin on AR2G sensor, TG1 periplasmic scFv as analyte. In general terms: In BLI a coated tip is dipped into the sample, and binding shifts an interference pattern.
Test [2] shares this target. Briefly: BLI (Octet RED96), MSLN-Biotin on AR2G sensor, TG1 periplasmic scFv as analyte (表2.4).
For test [3] the target is unchanged. Briefly: BLI (Octet RED96), MSLN-Biotin on AR2G sensor, TG1 periplasmic scFv as analyte (表2.2).
The target is the same in test [4]. Kind of test: BLI (Octet RED96), MSLN-Biotin on AR2G sensor, TG1 periplasmic scFv as analyte (表2.1).

Where a chain is given by its changes, count along the chain named.

The koff is a measure of how fast the partners let go of each other. A low value points to slow dissociation.

UniProt Q13421, sequence (Q13421 296-606 limits assumed): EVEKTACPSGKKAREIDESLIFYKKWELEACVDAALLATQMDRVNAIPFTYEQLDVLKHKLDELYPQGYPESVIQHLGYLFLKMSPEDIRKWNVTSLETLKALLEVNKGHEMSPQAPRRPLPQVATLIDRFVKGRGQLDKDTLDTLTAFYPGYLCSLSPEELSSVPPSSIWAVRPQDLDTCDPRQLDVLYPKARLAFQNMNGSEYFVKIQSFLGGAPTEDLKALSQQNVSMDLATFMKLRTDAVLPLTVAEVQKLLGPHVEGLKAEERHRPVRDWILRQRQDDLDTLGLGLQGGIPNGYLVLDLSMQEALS

B1: 2G8 (scFv, V domains shown)
VH: QVQLQQPGAELVKPGASMKLSCKASGTQFANYRMHWVKQRPGQGLEWIGMIHPNSDNTIYYEKFKSKATLTVDKSSSTAYMQLSSLTSEDSAVYYCAIIITPVVPKFDYWGQGTTLTVSS
VL: DIVMTQSHQFMSTSVGDRVSVTCKASHDVGTSVAWYQQKPGQSPKLLIYWASTRHTGVPDRFTGSGSGTDFTLTISNVQSEDLADYFCQQYSSYPLTFGAGTKLELK
In test [1], B1 came in with a koff of 0.00111 s⁻¹ and a 响应 of 1.11.

B2: MN单链抗体 (scFv MN, wild type) (scFv, V domains shown)
VH: B1 VH with T27Y, Q28T, A30T, N31S, R33W
VL: B1 VL
With B2, the koff in test [2] stood at 0.000188 s⁻¹; in test [3], 0.000221 s⁻¹; in test [4], 0.000164 s⁻¹. In addition, the 响应 in test [2] is 0.37; in test [3], 0.38; in test [4], 0.37.

B3: 2D9 (scFv, V domains shown)
VH: B1 VH with T27Y, Q28T, A30T, N31S, R33W, P53A, N54Q
VL: B1 VL
In test [1], B3 registered a dissociation rate constant (koff) of 0.000217 s⁻¹ and a 响应 of 1.25.

B4: 7D5 (scFv, V domains shown)
VH: B1 VH with T27Y, Q28T, A30T, N31S, R33W
VL: B1 VL with W50K, T53N, R54N, H55K, T56K
In test [1], B4 had an off-rate constant (koff) of 0.000395 s⁻¹ and a 响应 of 0.94.

B5: 3F9 (scFv, V domains shown)
VH: B1 VH with T27Y, Q28T, A30T, N31S, R33W, D56Q
VL: B1 VL
Regarding B5, in test [1], the off-rate constant (koff) amounted to 0.000164 s⁻¹ and the 响应 was found to be 1.38.

B6: 9F5 (scFv, V domains shown)
VH: B1 VH with T27Y, Q28T, A30T, N31S, R33W
VL: B1 VL with W50Q, T53K, R54K, H55E, T56K
In the case of B6, in test [1], the off-rate (koff) is 0.000294 s⁻¹ and the 响应 is 0.97.

B7: 4A12 (scFv, V domains shown)
VH: B1 VH with T27Y, Q28T, A30T, N31S, R33W, I99V, T101L, V103F, V104L
VL: B1 VL
In test [1], B7 registered a koff of 0.0001 s⁻¹ and a 响应 of 0.91.

B8: 3E12 (scFv, V domains shown)
VH: B1 VH with T27Y, Q28T, A30T, N31S, R33W, H52N, P53L, N54V, D56S, N57R
VL: B1 VL
In test [1], B8 had a koff of 9.73e-05 s⁻¹ and a 响应 of 1.04.

B9: 2F9 (scFv, V domains shown)
VH: B1 VH with T27Y, Q28T, A30T, N31S, R33W, M50G, H52E, P53Q, D56S, N57E
VL: B1 VL
B9: in test [1], the off-rate constant (koff) came to 0.00166 s⁻¹ and the 响应 was found to be 0.13.

B10: 5F7 (scFv, V domains shown)
VH: B1 VH with T27Y, Q28T, A30T, N31S, R33W
VL: B1 VL with S92A, T97S
In test [1], B10 gave a dissociation rate constant (koff) of 0.000613 s⁻¹ and a 响应 of 0.73.

B11: 4C11 (scFv, V domains shown)
VH: B1 VH with T27Y, Q28T, A30T, N31S, R33W, P53L, D56A, N57Q
VL: B1 VL
In the case of B11, in test [1], the koff came to 0.000133 s⁻¹ and the 响应 came out at 1.16.

B12: 8C9 (scFv, V domains shown)
VH: B1 VH with T27Y, Q28T, A30T, N31S, R33W
VL: B1 VL with K24M
In test [1], B12 registered an off-rate (koff) of 0.000356 s⁻¹ and a 响应 of 0.93.

B13: 7E10 (scFv, V domains shown)
VH: B1 VH with T27Y, Q28T, A30T, N31S, R33W
VL: B1 VL with W50N, T53S, H55G, T56G
Take B13: in test [1], the koff came out at 0.000401 s⁻¹ and the 响应 came to 1.02.

B14: 4D7 (scFv, V domains shown)
VH: B1 VH with T27Y, Q28T, A30T, N31S, R33W, I99T, T101S
VL: B1 VL
In test [1], B14 gave a koff of 0.000321 s⁻¹ and a 响应 of 0.96.
